Source: the nanobody polyreactivity screen of Harvey et al. (2022)

Assay: yeast display, Sf9 membrane polyspecificity reagent, FACS + sequencing; frameworks hold sequencing errors
Summary of the method: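 Nanobodies from a synthetic yeast display library (Saccharomyces cerevisiae BJ5465), induced 36–48 hours with galactose, were stained 1 hour at 4 °C with 10% biotinylated, detergent-solubilized Sf9 membrane reagent, enriched on streptavidin microbeads, then FACS-sorted. Anti-HA (expression) and streptavidin (reagent binding) fluorescence set low and high (top ~1%) gates. Polyreactivity labels come from the gate of origin. Genes were colony-PCR amplified, MiSeq 2 × 250 sequenced and filtered by CDR length.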

Row | Sequence | polyreactivity (PSR sort gate)
1 | QVQLVESGGGLVQAGGSLRLRCAASGSIFPLYAMGWYRQAPGKERELVAAITSSGGRTYYADSVKGRFTISRDNAKNTVYLQMNSLKPEDTAVYYCNAGYYVRRDYDYWGQGTQVTVSS | low polyreactivity
2 | QVQLVESGGGLVQAGGSLRLRCAASGSIFPPYAMGWYRQAPGKERELVAVISFSSGRTYYADSVKGRFTISRDNAKNTVYLQMNSQKPEDTAVYYCAADYESRNKFDYWGQGTQVTVTS | low polyreactivity
3 | QVQLVESGGGLVQAGGSLRLRCAASGSIFPYNAMGWYRQAPGKERELVAAISKRGRSTYYADSVKGRFTISRDNAKNTVYLHMNSLKPEDTAVYYSAARYPPYRSWYSYDYWGQGTQVTVSS | low polyreactivity
4 | QVQLVESGGGLVQAGGSLRLRCAASGSIFRVYAMGWYRQAPGKERELVATITWNGGSTYYADSVKGRFTISRDNAKNTVYLQMNSLKPEDTAVFYCAKPSSWRRVLPIDYWGQGTQVTVSS | low polyreactivity
5 | QVQLVESGGGLVQAGGSLRLRCAASGSIFRYNPMGWYRQAPGKERELVAPISWSGGHTYYADSVKGRFTISRDNAKNTDYLQLNSLKPEDTAVYYWATVPRKTPGNAELDYWGQGTQVTVSS | high polyreactivity
6 | QVQLVESGGGLVQAGGSLRLRCAASGSIFWYYTMGWYRQAPGIERELVATLTRSGSRTYDADSVKGRCTISRDNAKNTVYLQMNSLKPEDTAVYYCAKDYGPWTYDYWGQGTQVTVSS | low polyreactivity
7 | QVQLVESGGGLVQAGGSLRLRCAASGSIFYRNPMGWYRQAPGKESELVAAITSRGGRTYYADSVKGRFTISRDNAKNTVYLQMNSLKPEDTAVYYCNKRDVYSTSDYDYWGQGTQVTVSS | high polyreactivity
8 | QVQLVESGGGLVQAGGSLRLRCAASGSISWLYSMGCYSQAPGKERELVAAISWGGGDTYYADSVKGRFTISRDNAKNTVYLQMHSLKPEDTEVFYCAADSDYYWLAYDYWGQGTQVTLSS | low polyreactivity
9 | QVQLVESGGGLVQAGGSLRLRCAASGSTFANYAMGWYRQAPGKERELVAAISVGDGSTYYADSVKGRFTISRDNAKNTVYLQMNILKPEDTAVYYCSRVRGGYDSWGQGTQVTVSS | high polyreactivity
10 | QVQLVESGGGLVQAGGSLRLRCAASGSTFGRYAKVWYRQAPGKEREFVAAISWSGGSTYYADSVKGRFTISRDNAKNTVYLQMNSLKPEDTAVYYCARYSWRGLAEFDSWGQGTQVTVSS | low polyreactivity
11 | QVQLVESGGGLVQAGGSLRLRCAASGSTFQTYAMGWYRQAPGKERELVAAITSGGATNYADSVKGRFTISRDNAKNTVFLQMNFLTPEVTAVYYCAVRLIDQTSDHRLQYDYWGQGTQVTVSS | low polyreactivity
12 | QVQLVESGGGLVQAGGSLRLRCAASGSTFWGYAMGWYRQAPGKERELVASITWRGGSTYADSVKGRFTISRDNAKNTVYLQMNSLKPEDTAVYYCNALPYRYRRYDYWGQGTQVTVSS | low polyreactivity
13 | QVQLVESGGGLVQAGGSLRLRCAASGSTLYGNAMGWYRQAPGKERDLVAVISRGGTTSYADSVKGRFTISRDNAKNTVYLQMKSLKPEDTAVYYCAVDVASLSTWPPAGRLVDYWGQGTQVTVSS | low polyreactivity
14 | QVQLVESGGGLVQAGGSLRLRCAASGYTLGPYAMGWYRPAPGKQRELVAAISWGGGRTYYADSVKGRFTISRDNAKNTVYLLMNSLKPEDTAVYYCAAKWSLVRDGPKYDYWGQGTQVTVSS | low polyreactivity
15 | QVQLVESGGGLVQAGGSLRLRCADSGSIFHCNAMGWNRQAPGKERELVAGITTSGGTTYYADTVKGRFTISRDNAKNTVYVQMKSLKPEATAVYYCAARIIRWRPRWPSYGKYDYWGQVTQVTVSS | low polyreactivity
16 | QVQLVESGGGLVQAGGSLRLRCASSGITFRGYAMGWYRQAPGKERELVASITNTDSTYYADSVKGRFTISRDNAKNTVYLQMNSLKPEDTAVYYCAARRGRKYGYWGQGTQVTVSS | high polyreactivity
17 | QVQLVESGGGLVQAGGSLRLRCDASGLIFYDNMGWYRQAPGKERELVAAISSSGGSTSYADSVKGRFTISRDNAKNTVYLQMNSLKPEDTAVYYCAADSYPAYLGFVGFDYWGQGTQVTVSS | low polyreactivity
18 | QVQLVESGGGLVQAGGSLRLRCDASGRIFISYTMGWSRPPPGKERELVAGIDSSGTSTYYADSVKGRFTISRDNAKNTVYLLMNSLKPEDNADYYCNVDGYWKDTSTEMVYWGQGTQVTVSS | low polyreactivity
19 | QVQLVESGGGLVQAGGSLRLRGAASGRTFPGYAMGWCRPAPGNERELVATICSADSTNYADSVMGRFTSSRDNAKNTVKLHMKSLKPEDTAVYFCAQRYGRNGAAAQYNVWYRYDYWGQGTQVTVSS | low polyreactivity
20 | QVQLVESGGGLVQAGGSLRLSAASGSTLAGNTMGWYRQAPGKERELVAAINDSGGSTYYADSVKGRFTISRDNAKNTVYLQMNSLKPEDTAVYYCNAEGSAYIEDGYDYWGQGTQVTVSS | low polyreactivity
21 | QVQLVESGGGLVQAGGSLRLSCAAAGFIFWSNAMGWYRQAPGKERELVAAIRNTGSTNYADSVKGRFTISRDNAKNTVYLQMNSLKPEDTAVYYCATKPYPYYLYYYWGQGTQVTVSS | high polyreactivity
22 | QVQLVESGGGLVQAGGSLRLSCAAAGNIFSPYAMGWYIQAPGKERELVAAISYSGGSTYYADSVKGRFTISRDIAKNTFYLQMNSLKPEDTAVYYCAVVYSYYLAVLGYWDYDYWGQGTQVTVSS | low polyreactivity
23 | QVQLVESGGGLVQAGGSLRLSCAAAGRISVFYTMGWYRQAPGKERVLVAVIRTSGGRTNYADSVKGRFTISRDNAKNTVYLQMNSLKPEDTAVYYWDADAVIEWTEWYSAWWYYYWGQGTQVTVSS | low polyreactivity
24 | QVQLVESGGGLVQAGGSLRLSCAAAGRLFGPYAMGWYGQAPGKERELVASISYSGGSTYYADSVKGRFTISRDNAKNTVYLQMNSLKAEDTAVYYCAKGGYWRGYNYWGQGTQVTVSS | low polyreactivity
25 | QVQLVESGGGLVQAGGSLRLSCAAAGRTFGDYDMGWYRQAPGKERELVAAITSDGTTYYADSVKGRFTISRDNAKNTVYLQMNSLKPEDTAVYYCAADYWYVSWYDYWGQGTQVTVSS | low polyreactivity
26 | QVQLVESGGGLVQAGGSLRLSCAAAGSIFRGYAMGWYRQEPEKERELVADISRRGGSTYYADSVKGRFTISRDNAKNTVYLQMNSLKPEDTAVYYCAKDGTGAGTYDYWGQGTQVTVSS | low polyreactivity
27 | QVQLVESGGGLVQAGGSLRLSCAAAGSTFSSYAMVWYRQAPGKERELVAAISTSGGRTYYADSVKGRFTISRDNAKNAVFLQMNSLKPEDTAVYYCAKKGICYVRYYYWGQGTLVTVSS | high polyreactivity
28 | QVQLVESGGGLVQAGGSLRLSCAACGFIFHFYAMGWYRQAPGKERELVASISAIGGSTYYADSVKGRFTISRDNAKNTVYLQMNSLKPEDTAVYYCATYSYRHRRYSRYDYWGQGTQVTVSS | high polyreactivity
29 | QVQLVESGGGLVQAGGSLRLSCAACGFTFAYYAMGWYRQAPGKERELVATITSGGRTYYADSVKGRFTISRDNAKNTVYFQMNSLKPEDTAVYYCAGAGKGRYHFRSTMDYWGQGTQVTVSS | high polyreactivity
30 | QVQLVESGGGLVQAGGSLRLSCAACGFTFYYYAMGWYRQAPGKERELVASISASGGITYYADSVKGRFTISRDNAKNTVYLQMNSLKPEDTAVYYCATRQGYRLYYWGQGTQVNVSS | high polyreactivity
